According to PMC5435687 (Scientific Reports, 2017):

Key:
[1] = test system: SH-SY5Y cells transfected with Arf6 WT/Q67L; experiment: Uptake in cells transfected with Arf6 WT or Q67L (confocal imaging); assay type: cell-based, human; conditions: SH-SY5Y 24 h post transfection, 1 µM HF488-labelled Aβ 24 h, confocal microscopy
Experimental: The samples were washed 1x in serum free medium prior to incubation with Aβ peptides and/or other reagents also in serum free medium that was supplemented with 30 mM HEPES and 2% B-27. For experiments including Trf B-27 was omitted as it, according to the media formulation provided by the manufacturer, contains unlabelled Trf that interferes with the experiment. Prior to imaging, cells were stained with 50 nM LysoTracker Deep Red for 30 min and 5 µg/ml Hoechst 33342 was added during the last 10 min of incubation. The cells were thereafter washed 1x, treated with 5 µg/ml FM 4–64 and imaged immediately (for labelling of cellular membrane) or after 10 min incubation at 37 °C (for labelling of cellular membrane and endocytic vesicles). […] The scanner unit was mounted onto a Leica DMIRB microscope equipped with an oil immersion 63x NA 1.47 Leica HCX PL APO objective for imaging and co-localisation analysis, or a 40x NA 0.55 Leica N PLAN L CORR air objective for quantification of peptide uptake. The sample was excited and detected sequentially with appropriate excitation laser lines and emission filters. […]

[2] = SDS-PAGE of peptide solutions, band quantification (monomer fraction); assay type: physicochemical; conditions: 1 µM HF488-labelled peptide in cell culture medium after HFIP pre-treatment; NuPAGE 4–12% Bis-Tris gel, fluorescence scan, ImageJ
Experimental: The lyophilized Aβ peptide powders were dissolved in hexafluoro-2-propanol to disrupt any aggregates[26] and monomerize the peptide. The solutions were vortexed briefly and aliquoted at 4 °C. The solvent in each aliquot was evaporated at 37 °C for 60 min using a RVC 2–18 CD Rotational Vacuum concentrator (Martin Christ, Germany). The remaining peptide films were snap frozen in liquid nitrogen and kept at −80 °C until further use. For concentration determinations the peptide film was dissolved in 1% ammonium hydroxide (v/v) and the absorption of the dye label was measured on a Cary 4000 UV-Vis Spectrophotometer (Agilent Technologies, Santa Clara, CA, US). Extinction coefficients of 70,000 M^−1cm^−1 at 504 nm and 250 000 M^−1cm^−1 at 649 nm was used for the HF488 and HF647 dye labels, respectively, according to the information provided by the manufacturer. Prior to each experiment one peptide film was dissolved in a small volume 1% ammonium hydroxide (v/v) and diluted with cell culture medium supplemented with 30 mM HEPES. […] The HF488 dye was excited by a 488 nm laser and emission detected through a 520/40 nm filter. After background correction, the gel bands corresponding to monomer, dimer and trimer species were quantified in ImageJ (NIH, Bethesda, Maryland, US) by integrated intensity of the respective bands.

[3] = test system: SH-SY5Y cells; experiment: Flow cytometry quantification of cellular uptake and clearance; assay type: cell-based, human; conditions: 500 nM, up to 3 days, 500 nM to 2.5 µM for 5 h
Experimental: SH-SY5Y cells were grown in a 1:1 mixture of minimal essential medium (MEM) and nutrient mixture F-12 Ham supplemented with 10% heat-inactivated fetal bovine serum, 1% MEM non-essential amino acids and 2 mM L-glutamine. The cells were detached (trypsin-EDTA 0.05%, 5 minutes) and passaged twice a week. Cells were plated 1day prior to experiments in either flat-bottomed 96 well plates (Nunc; 60,000 cells/well for experiments <1day and 20,000 cells/well for experiments ≥1day) for flow cytometry or in glass-bottomed culture dishes (MatTek; 25,000 cells/14 mm dish) for microscopy.
Flow cytometry was used to quantify cellular uptake. […] All samples were kept on ice until they were analysed on a Guava EasyCyte 8HT (Millipore, Darmstadt, Germany) that automatically retrieves samples from a 96-well plate. […] The cell counting gate was determined using propidium iodide (0.5 µM, not washed away prior to analysis) and calcein-AM (10 nM, 15 min staining) to distinguish live and dead cells, and for each sample 5,000 cells from within the live gate were counted and analysed. HF488, AlexaFluor488, EGFP and calcein-AM were excited by a 488 nm laser and their fluorescence was detected through a 525/30 nm filter. Propidium iodide and mRFP were excited by the 488 nm laser but detected through a 692/46 nm filter. HF647 and AlexaFluor647 were excited with a 635 nm laser and detected through a 661/19 nm filter. […]

Substance | Aβ uptake in Arf6 Q67L versus wild-type Arf6 overexpressing cells [1] | monomer fraction by SDS-PAGE band intensities [2] [%] | saturation of intracellular concentration [3]
Aβ(1–40): Synthetic 40 residue amyloid-β peptide conjugated to HiLyte Fluor HF488 (or HF647) at the N-terminus, from Anaspec | no difference | 84 | neither Aβ(1–40) nor Aβ(1–42) appears to saturate
Aβ(1–42): Synthetic 42 residue amyloid-β peptide conjugated to HiLyte Fluor HF488 (or HF647) at the N-terminus, from Anaspec | no difference | 86 | neither Aβ(1–40) nor Aβ(1–42) appears to saturate
